Experiments:
[1] = biological target: T1, human MSLN-FL-his protein (human, UniProt Q13421 296-580); assay: ELISA, coated MSLN full-length;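 further: binding of chimeric antibodies to plate-bound antigen, read by TMB colour after acid stop, antibody incubated 2 h at 37 °C, negative control antibody run alongside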
T1 construct: also called human MSLN full-length protein; hMSLN-FL-his; not shown: His tag

[2] = biological target: T2, human MSLN-R1-his protein (human, UniProt Q13421 296-390); assay: ELISA, coated MSLN-R1;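 further: serially diluted chimeric antibodies bound to the coated, BSA-blocked plate for 2 h at 37 °C, with TMB colour read after acid stop and a negative control antibody alongside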
T2 construct: Region 1 of human MSLN, His-tagged; also called human MSLN-R1 protein; hMSLN-R1-his; not shown: His tag
T2 chain: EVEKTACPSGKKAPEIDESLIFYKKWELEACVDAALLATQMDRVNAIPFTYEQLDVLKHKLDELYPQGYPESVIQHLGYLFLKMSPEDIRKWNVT

Row | Binder | OD450 at 0.0001 nM [1] [OD450] | OD450 at 0.001 nM [1] [OD450] | OD450 at 0.01 nM [1] [OD450] | OD450 at 0.1 nM [1] [OD450] | OD450 at 1 nM [1] [OD450] | OD450 at 10 nM [1] [OD450] | OD450 at 100 nM [1] [OD450] | OD450 at none (no antibody) [1] [OD450] | OD450 at 0.0001 nM [2] [OD450] | OD450 at 0.001 nM [2] [OD450] | OD450 at 0.01 nM [2] [OD450] | OD450 at 0.1 nM [2] [OD450] | OD450 at 1 nM [2] [OD450] | OD450 at 10 nM [2] [OD450] | OD450 at 100 nM [2] [OD450] | OD450 at none (no antibody) [2] [OD450]
1 | S009-F2.23.12 (antibody, human IgG1, kappa, V domains shown, Human-murine chimeric antibody, human IgG1/kappa constant regions) VH: QVQLQQPGTELVKPGASVKLSCKASGYTFTNYWMHWVKQRPGQGLEWIGNINPSNGGPYYNERFRSKATLTVDKSSSTAYMQLSSLTSEDSAVYYCARPYYGSSYGYFDYWGQGTTLTVSS VL: DIQMTQSPSSLSASLGGKVTITCKASQDINKYIAWYQHKPGKGPRLLIHYTSELQPGIPSRFSGNGSGRDYSFSISNLEPEDIATYYCLQYANPLRTFGGGTKLEIKR | 0.05 | 0.06 | 0.24 | 1.27 | 2.21 | 2.5 | 2.72 | 0.06 | 0.05 | 0.05 | 0.06 | 0.05 | 0.05 | 0.05 | 0.06 | 0.06
2 | S009-F2.47.1 (antibody, human IgG1, kappa, V domains shown, Human-murine chimeric antibody, human IgG1/kappa constant regions) VH: QVQLQQPGAELVKPGASVKLSCKASGYTFTSYWMHWVKQRPGQGLEWIGMIHPNSGSTNYNEKFKSKATLTVDKSSSTAYMQLSSLTSEDSAVYYCARPVVPYWYFDVWGTGTTVTVSS VL: DIVMTQSQKFMSTTVGDRVSITCKASQNVGTAVAWYQQKPGQSPKLLIYSASNRYTGVPDRFTGSGSGTDFTLTISNMQSEDLADYFCQQSSSYPLTFGAGTKLELKR | 0.06 | 0.1 | 0.45 | 1.78 | 2.31 | 2.4 | 2.57 | 0.06 | 0.05 | 0.05 | 0.05 | 0.05 | 0.09 | 0.23 | 0.36 | 0.06
3 | S009-F2.58.8 (antibody, human IgG1, kappa, V domains shown, Human-murine chimeric antibody, human IgG1/kappa constant regions) VH: QVQLLQSGAELAKPGASVKLSCKASGYTFTSYWVHWVKQRPGQGLEWIGYINPNSGYTKYNQKFKDKATLTADKSSSTAYMQLSSLTYEDSAVYYCADHYYGSSRDYFDYWGQGTTLTVSS VL: QIVLTQSPAIMSASPGEKVTMTCSASSSVSYMYWYQQRPGSSPRLLIYDTSNLASGVPVRFSGSGSGTSYSLTISRMEAEDAATYYCQQWNSYPYTFGGGTKLEIKR | 0.05 | 0.06 | 0.09 | 0.4 | 1.56 | 2.47 | 2.87 | 0.06 | 0.05 | 0.05 | 0.05 | 0.06 | 0.13 | 0.43 | 0.83 | 0.06
4 | S009-F2.39.3 (antibody, human IgG1, kappa, V domains shown, Human-murine chimeric antibody, human IgG1/kappa constant regions) VH: QVQLQQPGTELVKPGASVKLSCKASGYTFTNYWMHWVKQRPGQGLEWIGNINPSSGDSYYNERFMSKAKMTVDKSSSTAYMQLSSLTSEDSAVYYCARSGGLWLAFWGPGTLVTVSA VL: DIVMTQSPSSLAMSVGQKVTMSCKSSQTLLNSVSQNNYLAWYQQKPGQSPTLLVYFASTRESGVPDRFIGGGSGTDFTLTISSVQAEDLADYFCQQHYRTPYTFGGGTNLEIKR | 0.05 | 0.05 | 0.08 | 0.42 | 1.57 | 2.37 | 2.53 | 0.06 | 0.05 | 0.05 | 0.05 | 0.05 | 0.05 | 0.06 | 0.07 | 0.06
5 | S009-F2.21.4 (antibody, human IgG1, kappa, V domains shown, Human-murine chimeric antibody, human IgG1/kappa constant regions) VH: EVQLQQSGPELVKPGASVKIPCKASGYTFTDYNMDWVKQSHGKSLEWIGDINPNNGGSIYNQRFKGKATLTVDKSSSTAYMELRSLTSEDSAVYYCARRAYYSTGYFDVWGTGTTVTVSS VL: QIVLTQSPALMSASPGEKVTITCSASSSISYMHWFQQKPGTSPKLWIYSTSTLASGVPARFSGSGSGTSYSLTISRMEAEDTATYYCQQRSSYPPTFGGGTKLEIKR | 0.05 | 0.09 | 0.41 | 1.93 | 2.46 | 2.56 | 2.95 | 0.06 | 0.05 | 0.05 | 0.05 | 0.05 | 0.05 | 0.05 | 0.06 | 0.06
